This data set deals with the molecule itself. The data set is described as follows: SEC. (In general: In gel filtration, larger molecules generally elute earlier.)

B1: MBP-Δexon3 NLRP3 + GSGAGG linker (human NLRP3 3-1036, Δ95-134 + linker (GSGAGG)) (natural protein)
chain: MASTRCKLARYLEDLEDVDLKKFKMHLEDYPPQKGCIPLPRGQTEKADHVDLATLMIDFNGEEKAWAMAVWIFAAINRRDLYEKAKRDEPKWGSGAGGDYRKKYRKYVRSRFQCIEDRNARLGESVSLNKRYTRLRLIKEHRSQQEREQELLAIGKTKTCESPVSPIKMELLFDPDDEHSEPVHTVVFQGAAGIGKTILARKMMLDWASGTLYQDRFDYLFYIHCREVSLVTQRSLGDLIMSCCPDPNPPIHKIVRKPSRILFLMDGFDELQGAFDEHIGPLCTDWQKAERGDILLSSLIRKKLLPEASLLITTRPVALEKLQHLLDHPRHVEILGFSEAKRKEYFFKYFSDEAQARAAFSLIQENEVLFTMCFIPLVCWIVCTGLKQQMESGKSLAQTSKTTTAVYVFFLSSLLQPRGGSQEHGLCAHLWGLCSLAADGIWNQKILFEESDLRNHGLQKADVSAFLRMNLFQKEVDCEKFYSFIHMTFQEFFAAMYYLLEEEKEGRTNVPGSRLKLPSRDVTVLLENYGKFEKGYLIFVVRFLFGLVNQERTSYLEKKLSCKISQQIRLELLKWIEVKAKAKKLQIQPSQLELFYCLYEMQEEDFVQRAMDYFPKIEINLSTRMDHMVSSFCIENCHRVESLSLGFLHNMPKEEEEEEKEGRHLDMVQCVLPSSSHAACSHGLVNSHLTSSFCRGLFSVLSTSQSLTELDLSDNSLGDPGMRVLCETLQHPGCNIRRLWLGRCGLSHECCFDISLVLSSNQKLVELDLSDNALGDFGIRLLCVGLKHLLCNLKKLWLVSCCLTSACCQDLASVLSTSHSLTRLYVGENALGDSGVAILCEKAKNPQCNLQKLGLVNSGLTSVCCSALSSVLSTNQNLTHLYLRGNTLGDKGIKLLCEGLLHPDCKLQVLELDNCNLTSHCCWDLSTLLTSSQSLRKLSLGNNDLGDLGVMMFCEVLKQQSCLLQNLGLSEMYFNYETKSALETLQEEKPELTVVFEPSW
Regarding B1, the binding result is on record as “binds”.

Values taken from paper doi:10.1101/2023.07.07.548075 (bioRxiv, 2023).
